Residue numbers refer to the chain shown, from its start.

One data set has as its target thrombin (Homo sapiens, UniProt P00734). The experiment in a line: Inhibition of thrombin-catalyzed conversion of fibrinogen to fibrin, absorbance at 350 nm. The format is biochemical. The conditions noted are these: for IC50: thrombin concentration of 0.1 nM, fibrinogen 2 μM. As for the experimental part: Thrombin (0.1 nM) and fibrinogen (2 μM) were incubated with TBCA and Lib of different concentrations separately in buffer systems (total reaction volume of 100 μL) for a certain amount of time (till reaction equilibrium was reached), and the IC50 values of TBCA and Lib were calculated by fitting of the absorbance of the reaction system measured at 350 nm on a microplate reader.
The inhibition of thrombin-catalyzed conversion of fibrinogen to fibrin by TBCA and the random circular nucleic acid (Lib) was compared.
Thrombin (0.1 nM) and fibrinogen (2 μM) were incubated with TBCA, M1, M2, M3, M4, M5, D1, D2 and D3 of different concentrations separately in buffer systems (total reaction volume of 100 μL) for a certain amount of time (till reaction equilibrium was reached), and the IC50 values of TBCA, M1, M2, M3, M4, M5, D1, D2 and D3 were calculated by fitting of the absorbance of the reaction system measured at 350 nm on a microplate reader.

A short description of data set [1]: Incubation in 50% serum at 37° C., electrophoresis, gray values of bands (biostability, half-life). The format is in vitro ADME. The conditions noted are these: 0.5 μM. As for the experimental part: Incubation of 0.5 μM of TBCA and TBA each (nucleotide sequences thereof are shown in SEQ ID NO:1 and SEQ ID NO:2, respectively) was performed in 50% serum at a temperature of 37° C. Samples were taken for electrophoresis at 0 min, 1 min, 2 min, 5 min, 10 min, 30 min, 60 min (1 h), 120 min (2 h), 240 min (4 h), 480 min (8 h), 720 min (12 h) and 1440 min (24 h), respectively.

The molecule “D3: Deletion variant of TBCA, SEQ ID NO:10 (DNA ATCTCGACTAGTCATAGGGGGCGCGAACATACGCGGTTGGTGTGGTTGGCTGACAA; DNA, backbone and methylation of C not given here; further chemistry not fully specified)” gave an IC50 with thrombin of 0.13 nM.
As to “TBA: Existing thrombin binding aptamer, 5′-GGTTGGTGTGGTTGG-3′, specifically targets α-thrombin [reference compound]”, the half-life result in data set [1] is reported as “approximately 2 min”. This molecule also registered an IC50 in the data set with thrombin of 1.3 nM.

B1: D1: Deletion variant of TBCA, SEQ ID NO:8 (nucleic acid)
DNA: ATCTCGACTAGTCATAGGGGGCGCGAACATACGCGGTTGGTGTGGTTGGCTGACAATACTCGTGTCTCGGAT
modifications: DNA, backbone and methylation of C not given here; further chemistry not fully specified
For B1, the IC50 with thrombin turned out to be 0.15 nM.

B2: TBCA: Circular DNA aptamer, SEQ ID NO:1, 5′ end and 3′ end connected to form a ring (nucleic acid)
DNA: ATCTCGACTAGTCATAGGGGGCGCGAACATACGCGGTTGGTGTGGTTGGCTGACAATACTCGTTTTTGGTGTCTCGGAT
modifications: DNA, backbone and methylation of C not given here; circular: 5' and 3' ends joined to form a ring
Take B2: the half-life result in data set [1] is “about 8 hours”; in data set [1] (listed as thrombin binding circular aptamer), “up to 8 hours”. Also, in the data set with thrombin (thrombin 0.1 nM, ratio of IC50 values, TBCA vs Argatroban), the “inhibition effect on thrombin relative to Argatroban” value is recorded as 30 times. Besides, the “inhibition effect on thrombin relative to TBA” value in the data set with thrombin (thrombin 0.1 nM, ratio of IC50 values, TBCA vs TBA) was 13 times. In the data set with thrombin, half-maximal inhibition (IC50) required 0.15 nM.

B3: M1: Substitution variant of TBCA, SEQ ID NO:3, N is a random nucleotide (nucleic acid)
DNA: B2 DNA with A1N, T2N, C3N, T4N, C5N, G6N, A7N
modifications: DNA, backbone, methylation of C and the base at N not given here; circular: 5' and 3' ends joined to form a ring
In turn, B3 yielded an IC50 with thrombin of 0.37 nM.

B4: M2: Substitution variant of TBCA, SEQ ID NO:4, N is a random nucleotide (nucleic acid)
DNA: B2 DNA with C8N, T9N, A10N, G11N, T12N, C13N, A14N
modifications: DNA, backbone, methylation of C and the base at N not given here; circular: 5' and 3' ends joined to form a ring
B4 returned an IC50 in the data set with thrombin of 0.36 nM.

B5: M3: Substitution variant of TBCA, SEQ ID NO:5, N is a random nucleotide (nucleic acid)
DNA: B2 DNA with T57N, A58N, C59N, T60N, C61N, G62N, T63N
modifications: DNA, backbone, methylation of C and the base at N not given here; circular: 5' and 3' ends joined to form a ring
In the data set with thrombin, B5 returned an IC50 of 0.18 nM.

B6: M5: Substitution variant of TBCA, SEQ ID NO:7, N is a random nucleotide (nucleic acid)
DNA: B2 DNA with G71N, T72N, C73N, T74N, C75N, G76N, G77N, A78N, T79N
modifications: DNA, backbone, methylation of C and the base at N not given here; circular: 5' and 3' ends joined to form a ring
In turn, B6 came in with a half-maximal inhibitory concentration (IC50) with thrombin of 0.11 nM.

B7: M4: Substitution variant of TBCA, SEQ ID NO:6, N is a random nucleotide (nucleic acid)
DNA: B2 DNA with T64N, T65N, T66N, T67N, G68N, G69N, T70N
modifications: DNA, backbone, methylation of C and the base at N not given here; circular: 5' and 3' ends joined to form a ring
For the molecule B7, 0.1 nM corresponded to half-maximal inhibition with thrombin (IC50).

B8: D2: Deletion variant of TBCA, SEQ ID NO:9 (nucleic acid)
DNA: ATCTCGACTAGTCATAGGGGGCGCGAACATACGCGGTTGGTGTGGTTGGCTGACAATACTCGT
modifications: DNA, backbone and methylation of C not given here; further chemistry not fully specified
The molecule B8 came in with an IC50 in the data set with thrombin of 0.09 nM.

A word on the IC50: it is the midpoint of a concentration-inhibition curve.
